Data on one substance can be found in patent publication US20240270801A1, “EPITOPE PEPTIDE OF HUMAN ALPHA-SYNUCLEIN AND PHARMACEUTICAL COMPOSITION INCLUDING SAID PEPTIDE” (Sumitomo Pharma Co., Ltd., priority 2021, published 2024).

No end group written: not given here. KLH = keyhole limpet hemocyanin

For data set [1], the system named is aggregated human αSyn. In words: Antibody-inducing ability in mice: ELISA antibody titer of immune serum with respect to aggregated human αSyn. The class given is in vivo, mouse. The essentials: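 Female balb/c mice (6 weeks) immunized i.m. twice, 2 weeks apart, with conjugate (250 μg/mouse) or KLH-DMPVDPDN (25 μg/mouse) plus Alum (50 μg/mouse); serum taken 2 weeks after second dose. ELISA on plates coated with aggregated human αSyn (15 ng/well), anti-mouse IgG-HRP, TMB, A450; titers expressed relative to reference conjugate set to 1 (log).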
(In general: In an ELISA, binding on a coated surface is turned into a signal by an enzyme label.)

In data set [2] the target is aggregated human αSyn (Homo sapiens, UniProt P37840). In words: Aggregated human αSyn-neutralizing effect of antibody induced in mice: phosphorylation of human αSyn in SH-SY5Y cells. The class given is cell-based. On the set-up: purchased Stress Marq (StressMarq Biosciences Inc.). The settings on record: antibody (100 μg/mL) induced in C57BL/6 mice by the vaccine; FIG. 1B, isotype control = 100. How it is done:
The aggregated human αSyn-neutralizing effect of the antibody induced in the mice by the AJ-human αSyn peptide conjugate (AJ-p54) produced in Example 1 was evaluated. Physiological saline or the AJ-human αSyn peptide conjugate (250 μg/mouse) was intramuscularly administered to C57BL/6 mice (males, 6 weeks old, CLEA Japan, Inc.) four times at a 2-week interval using CFA (DIFCO) as an adjuvant. Furthermore, KLH-DMPVDPDN (25 μg/mouse) was administered using Alum (InvivoGen, 50 μg/mouse) as an adjuvant. Two weeks after the fourth administration, serum was recovered. After recovering the antibodies comprised in the serum by Protein G HP SpinTrap (Cytiva), the human αSyn- and aggregated human αSyn-neutralizing effect was evaluated by a method described below.
As the human αSyn- and aggregated human αSyn-neutralizing effect, the influence on phosphorylation of human αSyn in SH-SY5Y cells (ATCC) was evaluated. The SH-SY5Y cells were seeded in a 96-well plate at 2×10^4 cells/well and cultured under the conditions of 37° C. and 5% CO2. […] After fixing the cells with a 4% paraformaldehyde/phosphate buffer solution (FUJIFILM Wako Pure Chemical Corporation), phosphorylated human αSyn was stained with a fluorescence-labeled anti-phosphorylated αSyn antibody (Cell Signaling). The amount of phosphorylated human αSyn was evaluated by image analysis using ArrayScan (Thermo Fisher Scientific Inc.). […]

Take “KLH-C-DMPVDPDN ({KLH}-CDMPVDPDN) [KLH-DMPVDPDN, comparison vaccine, reference compound]”: the “Antibody-inducing ability regarding the aggregated human αSyn (in words)” value in the data set with aggregated human αSyn [1] (Example 2, balb/c mice) was “very weak”. Also, the “Antibody titer with respect to aggregated human αSyn (N = 4 − 6, mean ± standard deviation)” value in the data set with aggregated human αSyn [1] (Example 2, balb/c mice, i.m. twice at 2-week interval, Alum, AJ conjugates 250 μg/mouse, KLH-DMPVDPDN 25 μg/mouse, serum 2 weeks after second administration) amounted to 208 ± 205. Further, the “Induction of the antibody to aggregated human αSyn (in words)” value with aggregated human αSyn [1] (Example 4, balb/c mice) is “did not induce the antibody to aggregated human αSyn”. The “Antibody titer with respect to aggregated human αSyn (mean ± standard deviation)” value with aggregated human αSyn [1] (Example 4, balb/c mice, i.m. twice at 2-week interval, Alum, AJ conjugates 250 μg/mouse, KLH-DMPVDPDN 25 μg/mouse) was found to be 36 ± 20. In addition, the “Phosphorylation of human αSyn in SH-SY5Y cells to which aggregated human αSyn was added” value with aggregated human αSyn [2] was “inhibited”.
